Laboratory results taken from paper doi:10.1101/2025.02.27.640520.

Target: DeCLIC (Desulfofustis deltaproteobacterium)
Assay: cryo-EM structure

Substance DeCLIC (natural protein) has a stoichiometry N of 5.
